This is an account of results in article PMC2871789, “Characterization of the Interaction and Cross-Regulation of Three Mycobacterium tuberculosis RelBE Modules” (PLoS ONE, 2010).

The target of experiment [1] is T1, GST-RelE (Rv1246c), purified (M. tuberculosis, UniProt O50461 1-97).
T1 construct: the methods state the opposite tagging; also called GST-tagged RelE; pGEX-1246c
T1 sequence: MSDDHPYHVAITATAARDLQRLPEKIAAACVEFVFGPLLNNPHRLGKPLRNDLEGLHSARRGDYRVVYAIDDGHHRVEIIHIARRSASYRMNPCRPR
Kind of experiment: pull-down. The note with it: both partners purified.

Experiment [2] concerns the target T2, 6xHis-RelF (Rv2865), purified (M. tuberculosis, UniProt O33347 1-93).
T2 construct: also called his-tagged RelF; pET-2865; not shown: His6, N-terminal, kept
T2 sequence: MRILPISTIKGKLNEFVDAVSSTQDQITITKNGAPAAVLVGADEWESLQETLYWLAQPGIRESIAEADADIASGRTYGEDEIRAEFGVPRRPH
Briefly: pull-down. The note with it: both partners purified.

B1: 6xHis-RelB (Rv1247c), purified (natural protein)
chain: MAVVPLGEVRNRLSEYVAEVELTHERITITRHGHPAAVLISADDLASIEETLEVLRTPGASEAIREGLADVAAGRFVSNDEIRNRYTAR
notes: also called his-tagged RelB; histidine-tagged RelB; not shown: His6, N-terminal, kept
Turning to B1, in experiment [1], the binding result was “binds”.

B2: GST-RelG (Rv2866), purified (natural protein)
chain: MPYTVRFTTTARRDLHKLPPRILAAVVEFAFGDLSREPLRVGKPLRRELAGTFSARRGTYRLLYRIDDEHTTVVILRVDHRADIYRR
notes: also called GST-tagged RelG; pGEX-2866
Regarding B2, the binding result in experiment [2] is given as “binds”.
